Experimental data from patent US20160017037A1 (GlaxoSmithKline, published 2016).

T1: Fc-tagged recombinant soluble LAG-3 (IMP321) (human, UniProt P18627 23-434)
T1 construct: also called LAG3-Ig molecule IMP321; recombinant sLAG-3; not shown: Fc / Ig part
T1 sequence (looked up): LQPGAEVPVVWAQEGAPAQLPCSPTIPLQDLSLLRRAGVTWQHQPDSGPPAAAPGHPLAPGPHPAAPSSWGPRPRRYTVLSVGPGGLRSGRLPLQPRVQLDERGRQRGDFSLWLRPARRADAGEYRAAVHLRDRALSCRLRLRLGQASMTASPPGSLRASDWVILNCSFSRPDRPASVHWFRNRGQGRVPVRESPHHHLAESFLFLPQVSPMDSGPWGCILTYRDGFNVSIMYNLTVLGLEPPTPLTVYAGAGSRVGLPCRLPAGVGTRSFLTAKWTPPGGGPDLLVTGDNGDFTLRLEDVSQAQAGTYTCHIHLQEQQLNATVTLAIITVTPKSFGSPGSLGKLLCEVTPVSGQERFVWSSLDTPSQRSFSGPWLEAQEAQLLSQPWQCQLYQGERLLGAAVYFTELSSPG


Target: T1, Fc-tagged recombinant soluble LAG-3 …
Experiment: SPR Biacore 3000, off-rate comparison with IMP731, IMP321 analyte at 64 nM
Description: The binding kinetics of the purified antibodies for a sLAG-3 molecule were assessed by SPR using a Biacore™ 3000. A goat anti-human kappa antibody (Southern Biotech, Catalogue No. 2060-01) was immobilised on a CM5 chip by primary amine coupling. Humanised anti-LAG3 antibodies were captured on this surface and the LAG3-Ig molecule IMP321 (Chrystelle Brignone, Caroline Grygar, Manon Marcu, Knut Schakel, Frederic Triebel, The Journal of Immunology, 2007, 179: 4202-4211) used as the analyte at 64 nM with a buffer injection (i.e. 0 nM) used to double reference the binding curves. Regeneration was with 10 mM Glycine, pH1.5. The run was carried out on the Biacore™ 3000, using HBS-EP as running buffer and at 25° C. Sensorgrams were normalised for binding at maximal association and off-rates compared against IMP731 by visual inspection of the sensorgram profiles.

Binder | Rank order of off-rates
H1L7 (antibody, human IgG1, kappa, V domains shown, Humanised anti-LAG-3 variant, HEK 293 6E expressed) VH: QVQLQESGPGLVKPSETLSLTCTVSGFSLTAYGVNWIRQPPGKGLEWIGMIWDDGSTDYNSALKSRVTISVDTSKNQFSLKLSSVTAADTAVYYCAREGDVAFDYWGQGTLVTVSS VL: DIQMTQSPSSLSASVGDRVTITCKSSQSLLNPSNQKNYLAWYQQKPGKAPKLLVYFASTRDSGVPSRFSGSGSGTDFTLTISSLQPEDFATYYCLQHFGTPPTFGQGTKLEIKR | 2
J7L7 (antibody, human IgG1, kappa, V domains shown, Humanised anti-LAG-3 variant, HEK 293 6E expressed) VH: QVQLVQSGAEVKKPGSSVKVSCKASGFSLTAYGVNWVRQAPGQGLEWMGMIWDDGSTDYNSALKSRVTITADKSTSTAYMELSSLRSEDTAVYYCAREGDVAFDYWGQGTLVTVSS VL: DIQMTQSPSSLSASVGDRVTITCKSSQSLLNPSNQKNYLAWYQQKPGKAPKLLVYFASTRDSGVPSRFSGSGSGTDFTLTISSLQPEDFATYYCLQHFGTPPTFGQGTKLEIKR | 3
J13L7 (antibody, human IgG1, kappa, V domains shown, Humanised anti-LAG-3 variant, HEK 293 6E expressed) VH: QVQLVQSGAEVKKPGSSVKVSCKASGGTFSAYGVNWVRQAPGQGLEWMGMIWDDGSTDYDSALKSRVTITADKSTSTAYMELSSLRSEDTAVYYCAREGDVAFDYWGQGTLVTVSS VL: DIQMTQSPSSLSASVGDRVTITCKSSQSLLNPSNQKNYLAWYQQKPGKAPKLLVYFASTRDSGVPSRFSGSGSGTDFTLTISSLQPEDFATYYCLQHFGTPPTFGQGTKLEIKR | 7
H2L7 (antibody, human IgG1, kappa, V domains shown, Humanised anti-LAG-3 variant, HEK 293 6E expressed) VH: QVQLQESGPGLVKPSETLSLTCTVSGFSLTAYGVNWIRQPPGKGLEWIGMIWDDGSTDYNSALKSRVTISKDNSKNQVSLKLSSVTAADTAVYYCAREGDVAFDYWGQGTLVTVSS VL: DIQMTQSPSSLSASVGDRVTITCKSSQSLLNPSNQKNYLAWYQQKPGKAPKLLVYFASTRDSGVPSRFSGSGSGTDFTLTISSLQPEDFATYYCLQHFGTPPTFGQGTKLEIKR | 6
J0L7 (antibody, human IgG1, kappa, V domains shown, Humanised anti-LAG-3 variant, HEK 293 6E expressed) VH: QVQLVQSGAEVKKPGSSVKVSCKASGGTFSAYGVNWVRQAPGQGLEWMGMIWDDGSTDYNSALKSRVTITADKSTSTAYMELSSLRSEDTAVYYCAREGDVAFDYWGQGTLVTVSS VL: DIQMTQSPSSLSASVGDRVTITCKSSQSLLNPSNQKNYLAWYQQKPGKAPKLLVYFASTRDSGVPSRFSGSGSGTDFTLTISSLQPEDFATYYCLQHFGTPPTFGQGTKLEIKR | 9
H0L7 (antibody, human IgG1, kappa, V domains shown, Humanised anti-LAG-3 variant, HEK 293 6E expressed) VH: QVQLQESGPGLVKPSETLSLTCTVSGGSISAYGVNWIRQPPGKGLEWIGMIWDDGSTDYNSALKSRVTISVDTSKNQFSLKLSSVTAADTAVYYCAREGDVAFDYWGQGTLVTVSS VL: DIQMTQSPSSLSASVGDRVTITCKSSQSLLNPSNQKNYLAWYQQKPGKAPKLLVYFASTRDSGVPSRFSGSGSGTDFTLTISSLQPEDFATYYCLQHFGTPPTFGQGTKLEIKR | 10
H4L7 (antibody, human IgG1, kappa, V domains shown, Humanised anti-LAG-3 variant, HEK 293 6E expressed) VH: QVQLQESGPGLVKPSETLSLTCTVSGFSLTAYGVNWIRQPPGKGLEWLGMIWDDGSTDYNSALKSRLTISKDNSKNQVSLKLSSVTAADTAVYYCAREGDVAFDYWGQGTLVTVSS VL: DIQMTQSPSSLSASVGDRVTITCKSSQSLLNPSNQKNYLAWYQQKPGKAPKLLVYFASTRDSGVPSRFSGSGSGTDFTLTISSLQPEDFATYYCLQHFGTPPTFGQGTKLEIKR | 4
H7L7 (antibody, human IgG1, kappa, V domains shown, Humanised anti-LAG-3 variant, HEK 293 6E expressed) VH: QVQLQESGPGLVKPSETLSLTCTVSGGSISAYGVNWIRQPPGKGLEWIGMIWDDGSTDYDSALKSRVTISVDTSKNQFSLKLSSVTAADTAVYYCAREGDVAFDYWGQGTLVTVSS VL: DIQMTQSPSSLSASVGDRVTITCKSSQSLLNPSNQKNYLAWYQQKPGKAPKLLVYFASTRDSGVPSRFSGSGSGTDFTLTISSLQPEDFATYYCLQHFGTPPTFGQGTKLEIKR | 8
J11L7 (antibody, human IgG1, kappa, V domains shown, Humanised anti-LAG-3 variant, HEK 293 6E expressed) VH: QVQLVQSGAEVKKPGSSVKVSCKASGFSLTAYGVNWVRQAPGQGLEWMGMIWDDGSTDYDSALKSRVTITADKSTSTAYMELSSLRSEDTAVYYCAREGDVAFDYWGQGTLVTVSS VL: DIQMTQSPSSLSASVGDRVTITCKSSQSLLNPSNQKNYLAWYQQKPGKAPKLLVYFASTRDSGVPSRFSGSGSGTDFTLTISSLQPEDFATYYCLQHFGTPPTFGQGTKLEIKR | 5
